Test results from IntAct's records for PubMed 19194460.

B1: Decapping nuclease din1 (Schizosaccharomyces pombe (strain ATCC 38366 / 972)), O13836 (parent)
chain: MLREFSFYDVPPAHVPPVSEPLEIACYSLSRDRELLLDDSKLSYYYPPPLFSDLNTGFPNRFHPPKSDPDPISIVKDVLMTKGIQMNSSFLTWRGLITKIMCAPLDPRNHWETYLVMDPTSGIIMMEERTRSETSYANQDRMCYWGYKFEAISTLPEIWDACSRDQIEQRDNQDVVPDEQYCSIVKINIGKSKLILAGEVDCIWDKKPCSAKESDVHSDDGTIEEDASNAENPNLHYVELKTSKKYPLENYGMRKKLLKYWAQSFLLGIGRIIIGFRDDNGILIEMKELFTHQIPKMLRPYFKPNDWTPNRLLVVLEHALEWIKQTVKQHPPSTEFTLSYTGGSKLVLRQII
partner: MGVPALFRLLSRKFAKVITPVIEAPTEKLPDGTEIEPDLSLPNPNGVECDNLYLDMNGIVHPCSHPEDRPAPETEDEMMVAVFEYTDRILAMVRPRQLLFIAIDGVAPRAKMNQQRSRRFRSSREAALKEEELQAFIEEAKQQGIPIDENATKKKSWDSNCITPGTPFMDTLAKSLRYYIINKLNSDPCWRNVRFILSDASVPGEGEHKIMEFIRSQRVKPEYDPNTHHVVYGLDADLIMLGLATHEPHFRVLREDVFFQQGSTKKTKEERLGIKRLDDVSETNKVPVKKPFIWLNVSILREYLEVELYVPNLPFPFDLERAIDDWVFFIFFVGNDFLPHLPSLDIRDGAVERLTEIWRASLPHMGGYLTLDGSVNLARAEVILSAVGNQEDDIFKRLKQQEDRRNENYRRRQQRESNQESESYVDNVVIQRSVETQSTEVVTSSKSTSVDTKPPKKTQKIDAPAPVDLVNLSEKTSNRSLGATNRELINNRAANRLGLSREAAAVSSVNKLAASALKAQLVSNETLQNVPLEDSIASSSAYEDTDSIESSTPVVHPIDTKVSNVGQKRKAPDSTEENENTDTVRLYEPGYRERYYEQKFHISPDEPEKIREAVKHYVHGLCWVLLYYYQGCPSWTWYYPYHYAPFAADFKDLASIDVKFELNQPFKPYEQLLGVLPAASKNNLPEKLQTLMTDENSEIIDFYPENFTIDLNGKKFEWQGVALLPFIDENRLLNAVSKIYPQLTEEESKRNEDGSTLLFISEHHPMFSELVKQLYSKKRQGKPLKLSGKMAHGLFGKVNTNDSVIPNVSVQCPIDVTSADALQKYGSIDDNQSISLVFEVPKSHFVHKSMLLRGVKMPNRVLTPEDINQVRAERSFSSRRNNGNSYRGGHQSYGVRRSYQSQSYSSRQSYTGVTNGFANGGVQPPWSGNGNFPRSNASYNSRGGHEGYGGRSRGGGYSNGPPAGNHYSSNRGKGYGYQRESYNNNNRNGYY

Variants of: B1
Details: with xrn2_schpo dhp1, P40848

Effect of a mutation on the interaction, decreasing interaction:
MLREFSFYDVPPAHVPPVSEPLEIACYSLSRDRELLLDDSKLSYYYPPPLFSDLNTGFPNRFHPPKSDPDPISIVKDVLMTKGIQMNSSFLTWRGLITKIMCAPLDPRNHWETYLVMDPTSGIIMMEERTRSETSYANQDRMCYWGYKFEAISTLPEIADACSRDQIEQRDNQDVVPDEQYCSIVKINIGKSKLILAGEVDCIWDKKPCSAKESDVHSDDGTIEEDASNAENPNLHYVELKTSKKYPLENYGMRKKLLKYWAQSFLLGIGRIIIGFRDDNGILIEMKELFTHQIPKMLRPYFKPNDWTPNRLLVVLEHALEWIKQTVKQHPPSTEFTLSYTGGSKLVLRQII [W159A]
MLREFSFYDVPPAHVPPVSEPLEIACYSLSRDRELLLDDSKLSYYYPPPLFSDLNTGFPNRFHPPKSDPDPISIVKDVLMTKGIQMNSSFLTWRGLITKIMCAPLDPRNHWETYLVMDPTSGIIMMEERTRSETSYANQDRMCYWGYKFEAISTLPEIWDACSRDQIEQRDNQDVVPDEQYCSIVKINIGKSKLILAGEVDCIADKKPCSAKESDVHSDDGTIEEDASNAENPNLHYVELKTSKKYPLENYGMRKKLLKYWAQSFLLGIGRIIIGFRDDNGILIEMKELFTHQIPKMLRPYFKPNDWTPNRLLVVLEHALEWIKQTVKQHPPSTEFTLSYTGGSKLVLRQII [W204A]
MLREFSFYDVPPAHVPPVSEPLEIACYSLSRDRELLLDDSKLSYYYPPPLFSDLNTGFPNRFHPPKSDPDPISIVKDVLMTKGIQMNSSFLTWRGLITKIMCAPLDPRNHWETYLVMDPTSGIIMMEERTRSETSYANQDRMCYWGYKFEAISTLPEIWDACSADQIEQRDNQDVVPDEQYCSIVKINIGKSKLILAGEVDCIWDKKPCSAKESDVHSDDGTIEEDASNAENPNLHYVELKTSKKYPLENYGMRKKLLKYWAQSFLLGIGRIIIGFRDDNGILIEMKELFTHQIPKMLRPYFKPNDWTPNRLLVVLEHALEWIKQTVKQHPPSTEFTLSYTGGSKLVLRQII [R164A]
